Experimental data: the DeepSol protein solubility set

assay: soluble on expression in E. coli; label from the status in PepcDB or PDB records

Row | Sequence | soluble on expression in E. coli
1 | MAHHHHHHMFANLDEEKKARLRERILQAAAAPPPAATPARSNSDSDGEQEVPPQHTESTKHASEQLAINAQSTDIDIANIRLFTLDELDLNQLTECKTLSLRKNLIHELSAFPQHLAGRLVELDLFDNKIRKVRDFFDSAMVPDPESGSLSKKAVPHAFYSLTKLDLSYNQLRKITGLDSLGSTLKELYLVENKIKVIEGLDSFVHLELLELGGNRIREIGSGLSNLRSLQSLWLGKNKIHSIGDSLHNLRELRKLSLQANRLTSITAEAFKEGCNPYLAELYLSENGISTIENLPLHSLHLLDFSFNPISTINEAVINPTNMPELEEFWLTDGSISDWGEVKKFCGFANTLRTIYVERNPIEQDKRYRDKVYMNLPFVTQIDSWPVVNKDNLEGDRLIQRRAS | not soluble
2 | MAHHHHHHMFKTMMFKTMRNYFMLNFKRNYRHYSRKKNINNINRKMNDPYSDLYKMNYYGNNFKRLPNKKTKSNEYELIRTSSNSFTYSSPYPPNINYTLKPYPDSAKEFYYENRKYVMKYKNVEYIPIKRMVCKGMSRRSNWDTYYLRVEK | not soluble
3 | MAHHHHHHMFSRGAAATAMAKVSRLVSPRLRIIHRDYLTRRGGRTHQRCSAVAVDYTPTYFATYKSDPGQCPRLIDAEAVHGDEQAFWSARRDFYRGGASRSYYPAWDRQAQALIMLTREVPRIPQEAAFRLFTLGLKMMLLPRLVAGVELMLPSWVTMNAESVLNEGLEGKVAEADGDGKATGAAADAAALPSASSAGANEDSGSANAEKR | soluble
4 | MAHHHHHHMFYTGINEPRPTAMNFSFDGLHFVSAHTDDAVRFIDVGNMTNTDVIICDAFGVHNVRYTHSSSVVCVAPRFHLDGHLHLLNTETSQFFGEMAYLNDAESEMLPVANTPVYSTLAQCPATDVIGAVVVAKGRLALFHPLISGCIAATPERSIVGSRACVQFSRDGHRIAIGDDHRIVLLDRRSFFGAPLAVLENKHVFTTSTSLTRCKGLEFSADANRLLLTSSSGEVVVYDWLRGETVANYFHGDARRHFVGSADAIGAQHVFPYQSASPILQLTSSMTGGRHLLVYAGCPSNSAASTRQGRLLYELQSKDSDVPVAIAVNPRLQLAATAARSITWWAFHNSVVEAYATLTEAGMTAAD | not soluble
5 | MAHHHHHHMGACGSKGSTSDKGLASDKDGKNAKDRKEAWERIRQAIPREKTAEAKQRRIELFKKFDKNETGKLCYDEVHSGCLEVLKLDEFTPRVRDITKRAFDKARVLGSKLENKGSEDFVEFLEFRLMLCYIYDFFELTVMFDEIDASGNMLVDEEELKRAVPKLEAWGAKVEDPAALFKEIDKNGTGSVTFDEFAAWASAVKLDADGDPDNVPERA | soluble
6 | MAHHHHHHMGCFNSTDAVADQDPASGYMYTKPNAKGTKEALFGGLLYRITDEEEGGLAFYNNSKDYEFHIKYLFGADSELNAVGDTKLEMQDDGILAEVVVYPLETKPFVQGTIDGYETKLEALPLSEEYFALHPEIDEAAYYRRLEAPKSSRF | soluble
7 | MAHHHHHHMGCVNCKKAKRRKDHPTLEEAAARETERERWAAAEQGFAAQNLYTSVHAANSLPLTEREGATPLPATPGRLENVPQISAAAAAPGETENGRGWNSKKKSNSQATGKADNDSTAAALARVTRTAAPSESSRETPKGRRNKHQYRCHPGVSSWSDGSLPLSVDSVGSAKCPHSSSSSSSSSAQTYKSKKGAEDAKKHGSPGSITAAEIWPQENSDDSVAQGHLNSASHSQTATAWLHINGLTAAGTTSSTNARQTRQPKMYHRSSNVSSDSRSNATPPGMETKVYPSADALDDGPSDWGSTSHDVPAAIPAPNTSVESGGAAAEASSLPNRAPFEPYSDLGSRDVTDYLPPYEWAPRTLPVPSPLRACGPVDMAQWEDGENQFCGLAAAGTTARFQDPVVNVSAEGATTSNSAVAEGNYGASHPFALHTFYPRLPPAQWSSSSSDDTINGPEASAAAFDYPHLPVNAFIQKAHPHQQQPTYRAMYEGDASVRYSPAGYASHEATPRRAVPPSLVDVHVSEAVGYASPPLVNNAHSFYPSRALLPMHHSHAVPDSGSGKPMAYSHALPAMTTSAPQIYHDGNRNRSGNISIVSIGGGVHPHKPVSYLFDSSMDDWLQSRHAQPPQRQLYGESVDMW | soluble
8 | MAHHHHHHMGGPREVTLKILDAIEAELKMSFKSIVEDRSLPYVSSSDTILVFGRSSLVEYILLSRSRDPQCKPKRVIVIDSAPLFEGRQLAEKLSSAGIDVTYGLITACCTLMPKCTRVFMGASAVLQNGDMFGRCGMALVAACAKLFRKPVLCFSESYKFVPEVWVGNLAQNTKLADMRPAAEVHGSDTGTHSPLVYPTPPTLSPPQLRASGGWGTPARGADFLTRSGGGGAVPFSSSASGYLYDLTPASYIDMIICEMGCLHTSAIVAAIKDREGRDTSQLLNLVRG | not soluble
9 | MAHHHHHHMGKFVAEQYLRRGVSVTVLARDIAKAKSLFLPIADGQREQNRLASMGYRQLSSAAEKREMTASLHYRDFRRGDRHVLRYEFRNPRSVGGPSAGSANASCDQRFALELVEGDVGSTQDLEFSMRHASIVFYLTAALEEASGPALRADDRLRSSAAWWSLGSWFCGGRRFGGFLHALDACRRVDAHFVALTPLWVHGSCLSPFYWYRRLLTHPRGYCKAVQLQEQTLLSQSGSPGARCSLGADELEARQPGGDWGCWWRSRLSTEPPDDILIKSRSPVRFSLFRLSDVVFPSFNERIVASKNNRVDDDLHVTFIQQGDLDARLLANVLVKSIGLCNSVVESRIDIGGSLRGGTDMRDANAIFDLFEQLRNE | not soluble
10 | MAHHHHHHMGRNNKMRSKPSDNVAWYDKGPVEWLPRPVRLTYDQLDQLRDWMMRETIAGRTEEFNKIRHLHREWSQHPLMPVLGDVEPKFPLNLYKQNHRAKRRFLVRWHKANSPTYWMWMPRGPAVATPLHRSSPSQFPEHWKSLARTSSSSSSSGSSSAAP | soluble
11 | MAHHHHHHMGTLEAQTQGPGSMLNKVMLIGYLGDDPESKTMTSGAEVVNFRMATFESYMNKNTHQKVEKTEWHSVVVFNPHFAKIALQYLHKGSKVYIEGKLQTRKWQDKNGHDRYTTEIVLPQYKGELHLLDAKKEQSASSSSVTSQSYAIASGADDYGISAHDSMPF | soluble
12 | MAHHHHHHMGTLEAQTQGPGSMNIDAISIGSNPPEDVNVIIEVPVGGQPIKYEMDKKAGALIVDRFLYTPMTYPGNYGFVPHTLSEDGDPIDVLVCNTRPLIPGCVINVRPIGVLVMEDNSGKDEKIIAVPSPHLTRRYEKIHDYTDMPEITLKQIAHFFEHYKDLEPGKWVKIGDWGDEDYARKFIVEAIERAKGK | soluble
13 | MAHHHHHHMGTLKAIIAPSVLASNISKLAEETQRMESLGAEWIHLDVMDMHFVPNLSFGPPVINNLKKYTKSIFFDVHLMVEYPEKYVPLLKTSNQLTFHFEALNEDTERCIQLAKEIRDNNLWCGISIKPKTDVQKLVPILDTNLINTVLVMTVEPGFGGQSFMHDMMGKVSFLRKKYKNLNIQVDGGLNIETTEISASHGANIIVAGTSIFNAEDPKYVIDTMRVSVQKYLNN | soluble
14 | MAHHHHHHMGTVSPARRVASPGKGKRSPSRGETPSEGRTRRAGSSPSSRPGMQTASQRAARKKEVRRLRDAELLLDEAPLSMVGERAQDALEAMLRALDIRRNASATPKKMQPVWHHVKALVVTANREGLRRAYAAFPAEEGHYFFGKALSTLEYSASTVNTAADGGEFAECPLLLSHLMEATLNNIAFQQYIAHEPPEAILKTLQRALKVQHHQAFRTLTLYNMAVAFLAARRYEDATEFVARCSQVAEVCLELEVSLTREISSLYKEYHTMVATHAIMCHHLLAGLAAWSGESDMEVYHAQLALCCATKFLCRG | not soluble
15 | MAHHHHHHMGYMQEREEMSAMVDQRTAQLEALTSSVAEAQKKLQALDERMMALEPHGNVQATAPAGATATTSKRARAGASSVGGAWDAAGVASATKMPPEELKKKVEESIEHIFHLLRTGDQQLKLTAQNPNLRKSVDGAKVAGNASHGRSRAASLHRGPKALQSSTMQTGKMKAATGGSSYDSQRPSSGAHRSGKSTVGATTAAGAADAASQQQHHDASMGPVEMLTIIENKLEEYHRYLSDPANHVELALMKAVMKQSDKQRRRQARIIHLANQEDEQEERIRRALERSQAPIIHKIGKPFRPRSFVSKPIDEKSRRKAERAAAALNGSLDNIDSDEDGAEFFM | soluble
16 | MAHHHHHHMIADDMGLGKTVQALAVAHHYRNEWPVLIVCPLSLVENWTKELMRFCSIPIGRIAIFQNSKVRVTDVHSAVIVPYSSLKSLDTQSTTFQVVILDESHYIKTVDSKRTVAALKLCRVARRVLLLSGTPTLSRPIELYPQLQTIMHPSWTPSKSLFAARYCNAFVGRFGVDYLGHSHMSELHVLLQQFVIRRTKRELGNELPSKIRQLLYVYITPKEKKALEKSVSALRNSFRDGATLPTLGDVASTTNMAQGTGGNLTTCTAGGVTATRNMTAFDLKIATARAKIAAVQDYVKSTTEQMVESGQKVIIFAHHQCMMEAIREAVESVQPKQPLDYIYITGETPAAQREALTTHFRTSTNCHVAVLSMHSCGVGHNLTCATMVVFAELDWNPSTHLQCEDRVHRMGQSSACVIKYLLAEGTSDSVIWPMLQTKLNVTHAVLEDSQAGGEGWSAGADTRRILRSDVPLTPSSPEKKQLTLEGFLSHSGSRPSRPLTQSSDSNAEVLKTSDESPRADTSPDTPFQSPSAVAPAENVLFDIAKLRQQREARKVFHSMPVLGTAGAGSSPVAAVTVTPPPPQIQRQVTLHEVLTNHPANSPTPKNSPQQRTNFHVAVAAKSFNERSGAAHTSSCSSETTVCAPIVSHPVKTLFLTRPASANSSSAASSVKPHAGASAADLSVFSTASKEGSICLAPSPRSEEIRRYNARRTPFILGSTLEKRLRPDDMEDQVS | not soluble
17 | MAHHHHHHMIGKIFDNAFRIRTYNRFVCFLIGGTFAYSFSNPDMDTVYDLFPIFKQNKYAYLTFLEVNEKHSNVFEERLKDLCRFYQKQPGYLYTKIIKRIDNINDISKYIVISTWIKSENYLLACNRMYGQILINKIQNYAKYNSYLYRIVVDDSDYLPPI | not soluble
18 | MAHHHHHHMIKCLKNNINIWKRVRRNVSYGYYNININEKIHKYFDNIDKKRNIKYISDCKSCKECVDEIKNGNYNLLKDFNMKMIGLDIEGYKIGKYGIVSIIQICYEDIYIFDIYKCDNVYLFINYIKDILECDDIIKVTHDCREDCSILYNQYNIHLKNILDTQVAYNLLLKNNNNYTNTYQISYDDLLKKYLFINNNHKIYFHKMITLDNYIYLKRPIMKELISYAIQDVIYLKPLILCILDKFIIKQKKKEEQEKNKYVNDKQNNKIKQEKFDKTSNTLQSKGNISSFNNQDLYHTKEIIQDIILHSKKYVNYQFLNSHIKDEKELQKGMILEGMVVSCNNTKMYLKLNMRKRGVILNYVQNKYEIGDIVKAVIVNFTRNDYINLGLYDEKILTLDAQKYIPREEVLQNIQKFLLNEEKI | not soluble
19 | MAHHHHHHMIVELNPANFHKVVKDPSKNVFVMFYAPWCGHCNNMKPMWLELADKYPTAEDVIIARIDASEYRGIAKEFDIRGFPTLKFFSKRDKSGEIEYDGPRELSAFVAYVATNKQ | not soluble
